Measured values as given in the nanobody polyreactivity screen of Harvey et al. (2022).

Assay: yeast display, Sf9 membrane polyspecificity reagent, FACS + sequencing; frameworks hold sequencing errors
Method in brief: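 Using colony PCR, genes from sorted yeast display clones were amplified, then sequenced on MiSeq at 2 × 250 and filtered by CDR length. The clones had been stained with 10% biotinylated, detergent-solubilized Sf9 membrane reagent for 1 hour at 4 °C and sorted by FACS into low and high (top ~1%) gates on anti-HA and streptavidin fluorescence. Polyreactivity labels come from the gate of origin.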

Row | Sequence | polyreactivity (PSR sort gate)
1 | QVQLVESGGGLVQAGGSLRLSCAASGSTFPFYAMGWYRQAPGKERELVAAITASVGNTYYADSVKGRFTISRDNAKNTVYLQMNSLKPEDTAVYYCNADEWYTYIPDFDYWGQGTQVTVSS | low polyreactivity
2 | QVQLVESGGGLVQAGGSLRLSCAASGSIFKGYAMGWYRQAPGKERELVAAITYSGGSTYYADSVKGRFTISRDNAKNTVYLQMNSLKPEDTAVYYCAADSEQDNLRYYRWVWYYYWGQGTQVTVSS | low polyreactivity
3 | QVQLVESGGGLVQAGGSLRLSCAASGSIFDYNAMGWYREAAGKEREFVASITYSGGSTNYADSVKGRFTISRDNAKNTVYLQMNSLKPEDTAVYYCSKTIGIVWIYYPGARYEDWGQGTQVTVSS | low polyreactivity
4 | EVHLVESGGCLVQPRGSLRLSCAASGYNYIRYRMGSYRQAPGKVREFVAAISGGSSTNYADSVKGRFTISRDNSKNTVYLQMNSLRAEDTAVYYCAAYKIDSDPRVYWGQGTQVTVSS | low polyreactivity
5 | QVQLVESGGGLVQAGGSLRLSCAASGRIFAYYAMGRYRQAPGKERELVAAITRSGARTYYADSVKGRFTISRDNAKNTVYLQMNSLKPEDTAVYYCAAEGVRIGTRYDYWGQGTQVTVSS | high polyreactivity
6 | QVQLVESGGGLVQAGGSLRLSCAASGFIFESTAMGWYRQAPGKERELVAGISNGDSTDYADSVKGRFTISRDNAKNTCYLQMNSLNPEDTAVYYCNAELWYSPYSQTTVRYDYWGQVTQVTVSS | low polyreactivity
7 | QVQLVESGGGLVQAGGSLRLSCAASGGTIVWNAMGWNRQAPGKEREFVAAITSSGGSTYYADSVKGRFTISRDNAKNSVYLQMNSLKPEDTAVYYCNVDTHSSYEFNSWGQGTQVTVSS | low polyreactivity
8 | QVQHVESGGGLVQAGGSLRLICAASGRIFLRNAMGWYRQAPGKERELVATITSRGGSTYYADAVKGRFTISRDNAKNTVYLQMNRLKPEDTAVYNCAAVPRRYRGFGYVYGGFYYWGQGTQVTVSS | low polyreactivity
9 | QDQHVESGGGLVQAGGSLRLSCAASGRTFRLYAMGWYRQAPGKERELVAAITRGGRTNYADSVKGRFTISRDNAKNTVYLQMNSLKPEDTAVYYCAARYVERHTDYYYWGQGTQVTVSS | low polyreactivity
10 | QVQLVESGGGLVQAGGSLRLSCAASGSNFTLYAMGWYRPAPGKERELVAAISRRGDRTYYADSVKGRFTISRDNAKNTVYLQMNSLKPADTAVYSCNARRAPPLPYYYWGQGTQVTVSS | high polyreactivity
11 | QVQLVESGGGLVQAGGSLRLSCAASGLIFTYYAMGWYRQAPGKERELVAGISSGTNTNYADSVKGRFTISRDNAKNTVYLQMISLKPEDTAVYYCAKTRGYQFVAYGYWGQGTQVTVSS | low polyreactivity
12 | QVQLVESGGGLVQAGGSLRISCAASGIIFSPYVMGWYRQAPGKERELVAAITTGDSTNYADSVKGRFTISRDNAKNTVYLQMKSLKPEDSAVYYCNADLYVGYLYYLFDYWGQGTQVSVSS | low polyreactivity
13 | QVQLVESGRGLVQAGGSLRLSCAASGRIFYVYDMGWYRQAPGKESELVAAITQSGGRTYYADSVKGRFTISRDNAKNTVYLQRNSLKPEDTAVYYCAATWLGSRNLVHITLYYWGQGTQVTVSS | low polyreactivity
14 | QVQLVESGGGLVQAGGSLRLSFAASGSIFIRNAMGWYRQAPGKERELVAAISIGDGSTYADSVKGRFTISRDNAKNSVYLQMNSLKPEDTAVYYCNAAGIVWRYYSYGYWGQGTQVTVSS | low polyreactivity
15 | QVQLVESGGGLVQAGGSLRLSCAASGSIFYRNAMGWYRQAPGKERELVAAISSDGSTNYADSVKGRFTISRDNAKNTVYLQMNSLKPEDTAVYFCAAPWTQILDYWGQGTQVTVSS | low polyreactivity
16 | QVQLVESGGGLVQAGGSLRLSCAASGFIFAWYAMGWSRQAPGKERELVADISWGGGSTYYADSVKGRFTISRDNAKNTVYLQMNSLKPEDTAVYYCAATRPATYAAYDYWGQGTQVTVSS | high polyreactivity
17 | QVQLVESGGGLVQAGGSLRLICAASGSTFNIYAMGWYRQAPGKERELVAAITSSGGSTYYAESVKGRFTISRDNGKNTVYLQMNSLKPEYTAVYYCNTDQYSPYEYSSFDSWGQGSQVTVSS | low polyreactivity
18 | QLQLVESGGGLVQAGGSLRLSCAASGNIFNYYAMGWYRQATGKERELVAAIRSGARTSYADSVKGRFTISRDNAKNTVYLQMNSLKPEDTAVYYCAASRFRWVQRDDYWGQGTQVTVSS | high polyreactivity
19 | QVQLVESGGGLVQAGGSLRLSCAASGSIFGYYAMGWSRQAPGKERELVAAISKSGGRTYYADSVKGRFTISRDNAKNTVYLQMNSLKPEDTAVYYCAAVLWYDIYYGGDYWGQGTQVTVSS | high polyreactivity
20 | QVQLVESGGGLVQAGGSLRLSCAASGRIFENNAMGWYRQAPGKERELVAAITSGGSTYYADSVKGRFTISRDNAKNTVYLQMNSLKPEDTAVYYCNVTFRVDPWTRTGYDYWGQGTQVTVSS | high polyreactivity
21 | QVQLVESGGGLVQAGGSLRLSCAASGSIYEINAMGWYRQAPGKERELVAAITGSGGSTHYADSVKGRFTISRDNAKNTVYLQMNSLKPEDTAVYYCAAVPRYQYGYWGQGTQVTVSS | low polyreactivity
22 | QVQLVESGGGLVQAGGSRRLSCAASGLIMDYYAMGWYRQAPGKERELVAAISSGGTDTYYADSVKGRFTITRDNAKNTVYLQMNSLKPEDTAVYYCAADSYWSAYDYWGQGTQVTVSS | low polyreactivity

Row | Sequence | polyreactivity (PSR sort gate)
23 | QVQLVESGGGLVQAGGSLRLSCAASGFTFGSNAMGWYRQAPGKEREFVAAISRSGSRTYYADSVKGRFTISRDNAKNTVYLQMNSLKPEDTAVYYCNARSGEISQRHMDYWGQGTQVTVSS | high polyreactivity
24 | QVQLVESGGGLVQAGGSLRLSCAASGSTFNYYAMGWYRQAHGTERELFAAITYRGGSTYYADSVKGRFTISRDNAKNTVYLHMNLLKPEDTAVYYCNARQVRYMYAQDEGYDYWGLGTQVTVSS | high polyreactivity
25 | QVQLVESGGGLVQAGGSLRLSCAASGRIFRPYAMGWYRQAPGKERELVAAITRGGSTKYADSVKGRFTISRDNAKNTVYLQMNSLKPEDTAVYYCAARGWSTGTSYRSAWWDYYYWGQGTQVTVSS | high polyreactivity
26 | QVQLVESGGGLVQAGGSLRLICAASGRIFVYYAMGWYRQAPGKERELVAAISSGGSTYYADSVKGRFTISRDNAKNTVYLQMNSLKPEDTAVYYCAADPQRGRRIGYYWGQGTQVTVSS | low polyreactivity
27 | QVQLQESGGGLVQAGGSLSLSCAESGTISFTRDMVWYRQAPGKEREFVASIDRGASTYYADSVKGRFTISRDNAKNTVYLQMNSLKPEDSAVYYKAVIAPFYSSFAYWGQGTQVTVSS | high polyreactivity
28 | QVHLVESGGGLVQAGGSLRLSCAASGIIFAPNAMGWYRQAPGKEREVVAGISSRGGSTYYADSVKGRFTISRDNAKNTVYLQMNSLKPEDTAVYYCAADLSYNPDEYWGQGTQVTVSS | low polyreactivity
29 | QVQLVESGGCLVQAGGSLRLSCAASGSIYGYTMGWYRQAPGKERELVAAINRRADRTYYADSVKGRFTISRDNAKNTVYLQMNSLKPEDTAVYYCATLQGDSSSQYDYWGHGTQVTVSS | high polyreactivity
30 | QVQLVESAGGLVQAGGSLRLSCAASGGTFLQYAMGSYRQAPGKERELVATITLIGDSTYYADSVKGRFTISRDNAKNTVYLQMNSLIPEDTAVYYCADRPVTSYAYGSWGQGTQVTVSS | low polyreactivity
31 | QVQLVESGGGLVQAGGSLRLSCAASGITFVPYAMGWYRQAPGKEREFVARITWSGGGTYYADSVKGRFTISRDNAKNTVYLQMNSLKPEDTAVYYSNKASLPTYYYVDGSDSWGQGTQVTVSS | low polyreactivity
32 | QVQLVESGGGLFQAGGSLRLSCAASGITFKGYTMGWYRQAPGKERELVATISRGGRTYADSVKGRFTISRDNAKNTVLLQMNSLKPEDTAVYYCAADKYWAQNDYWGQGTQVTVSS | low polyreactivity
33 | QVQLVESGGGFVQAGGSLRLSCAASGSTFHGYAMGWYRQEPGKERELVAAITSSGGSTYYADSVKGRFTISRDNAKNTVYLLMNILNPEVTEVYYCAARRYGWGRAQSSASYDHWGQGTQVTVSS | high polyreactivity
34 | QVQLVESGGGLFQAGGSLRLSCAASGRTIQTYTMGRYRQAPGKERELYAVITTRGGRTYYADSVKGRFTISRDNAKNTFYLQINRLKPEDTGVYYCIKGIPTRSVRSYDYWGQGTQVTVSS | high polyreactivity
35 | QVQLVESGGGLVQAGGSLRLSCAASGNTFSTNAMGWYRHAPGKERELVASISTNGGSTYYADSVKGRFTISRDNAKQTVYLQKNSLKPEDTAVYYCAAYVDWGVWAYLYEYWGQGTQVTVSS | low polyreactivity
36 | QVQLVESGGGLVQAGGSLRLSCAASGSTFRHYAMGWYRQAPGKERELVAVISWGGTSTYYADSVKGRFTISRDNAKNTVYLQMNSLKPEDTAVYYCAVKYAYPYAGVSAIRYYYWGQGTQVTVSS | low polyreactivity
37 | QVQLVESGGGLVQAGGSLRLSCAASGIIFPSYAMGWYRQAPGKERELVAGISSGGNTYYADSVKGRFTISRDNAKNTVYLQMNSLKPEDTAVYYCATAFAIWGLYYGYDYWGQGTQVTVSS | low polyreactivity
38 | QLQLVESGGALVQAGGSLRLSCAASGFTFSRNVMGWYRQAPGKERELVAAISSGSTYYADSVKGRFTISRDNAKKTVYLQMNSLKPEDTAVYYCAKRGRLRNYDYWGQGTKVTVSS | high polyreactivity
39 | QVQLVETGGGLVQAGGSLRLICAASASTFGYYAMGWYRQAPGKERELVAGIRYRGGSTSYADSVKGRFTISRDNAKNTVYLQLNSLKREDTAVYYCANGIYRGRTSSFRMGYWGQVTQVTVSS | low polyreactivity
40 | QVQLVESGGGLVQAGGSLRLSCAASGSTSHQYAMGWYRQAPGKERELVAAISSRAGSTYYADSVKGRFTISRDNAKNTVYLQMNSLKPEDTAFYYCAADADSWKWGYDYWGQGTQVTVSS | low polyreactivity
41 | QVQLVESGGGLVQAGGSLRLSCAASGSTFLTNAMGWYRQAPGKERELVVAIRTSGGSTYYADSVKGRFTISRDNAKNTVYLQMNSLKPEDTAFYYCAASYRRRRFSEYYYWGQGTQVTVSS | high polyreactivity
42 | QVHLVESGGGLVQAGGSLRLSCAASGFTFGHYAMGWYRQAPGKERELVAAITYRGGSTYYADSVKGRFTISRDNAKNTVYLQMNSLKPEDTAVYYCNADRRYKVYFAQNGHYDYWGQGTQVTVSS | high polyreactivity
43 | QVQLQESGGGLVQAGGSLRLSCAASGSNSILQSMGWYRQAPGKERELVAGINWGATTYYADSVKGRLTTSRDYAKNSVYLQMNSLKPEDTAVYFCAVPTYYTYPLLYWGQGTQVTVSS | low polyreactivity
